Values of other authors, collected in patent US9012177B2, “Methods and compositions for improving sugar transport, mixed sugar fermentation, and production of biofuels” (The Regents of the University of California, priority 2009, dated 2015).
Like-named read-outs stand apart in the source and are kept apart here.

Conditions: saturated xylitol, Watanabe et al. (2005b)

B1: psXDH (protein, UniProt P22144 1-363, looked up)
D-xylulose reductase: MTANPSLVLNKIDDISFETYDAPEISEPTDVLVQVKKTGICGSDIHFYAHGRIGNFVLTKPMVLGHESAGTVVQVGKGVTSLKVGDNVAIEPGIPSRFSDEYKSGHYNLCPHMAFAATPNSKEGEPNPPGTLCKYFKSPEDFLVKLPDHVSLELGALVEPLSVGVHASKLGSVAFGDYVAVFGAGPVGLLAAAVAKTFGAKGVIVVDIFDNKLKMAKDIGAATHTFNSKTGGSEELIKAFGGNVPNVVLECTGAEPCIKLGVDAIAPGGRFVQVGNAAGPVSFPITVFAMKELTLFGSFRYGFNDYKTAVGIFDTNYQNGRENAPIDFEQLITHRYKFKDAIEAYDLVRAGKGAVKCLIDGPE
NAD+
  Km: 381 µM
  kcat: 17.5 s⁻¹
NADP+
  kcat: 1.83 s⁻¹
